Test results reported in patent US10413607B2, “Antibody specifically binding to ErbB3 and use thereof” (ISU ABXIS CO., LTD., priority 2015, dated 2019).
Numbering of substitutions follows the chain as printed.

B1: 442S9: modified anti-ErbB3 antibody from lead antibody 442P (CDR mutagenesis) (antibody, V domains shown)
VH: EVQLLESGGGLVQPGGSLRLSCAASGFTFSDYDMSWVRQAPGKGLEWVSSIYPDSGSTYYADSVQGRFTISRDNSKNTLYLQMNSLRAEDTAVYYCAKDRHMWPEGPFDYWGQGTLVTVSS
VL: QSVLTQPPSASGTPGQRVTISCSGSSSNIGSNSGSWYQQLPGTAPKLLIYADNHRPSGVPDRFSGSKSGTSASLAISGLRSEDEADYYCAAWDSSLSGYVFGGGTKLTVLG
modifications: Heavy chain variable region of antibody 442S9; Light chain variable region of antibody 442S9
B2: 472S1: modified anti-ErbB3 antibody from lead antibody 472P (CDR mutagenesis) (antibody, V domains shown)
VH: EVQLLESGGGLVQPGGSLRLSCAASGFTFSWYDMTWVRQAPGKGLEWVSGISYDGGNTYYADSVKGRFTISRDNSKNTLYLQMNSLRAEDTAVYYCARDPSWCLQDLCYYADGMDVWGQGTLVTVSS
VL: B1 VL with G34V, N53S, H54N, A90G, A91S, S94Y
modifications: Heavy chain variable region of antibody 472S1; Light chain variable region of antibody 472S1
B3: 442M6: modified anti-ErbB3 antibody from lead antibody 442P (CDR mutagenesis) (antibody, V domains shown)
VH: B1 VH with Y52E, Y59D
VL: B1 VL with H54W
modifications: Heavy chain variable region of antibody 442M6; Light chain variable region of antibody 442M6
B4: 442M11: modified anti-ErbB3 antibody from lead antibody 442P (CDR mutagenesis) (antibody, V domains shown)
VH: B1 VH with S50T, Y52E, S55Y, Y59L, R100L, W103G
VL: B1 VL with G34V, A51S, A90H, Y99D, V100F
modifications: Heavy chain variable region of antibody 442M11; Light chain variable region of antibody 442M11
B5: 472S4: modified anti-ErbB3 antibody from lead antibody 472P (CDR mutagenesis) (antibody, V domains shown)
VH: B2 VH with M34I, T35A
VL: B1 VL with G34V, N53S, H54N, A90G, A91S, S94Y
modifications: Heavy chain variable region of antibody 472S4; Light chain variable region of antibody 472S4
B6: 472M1: modified anti-ErbB3 antibody from lead antibody 472P (CDR mutagenesis) (antibody, V domains shown)
VH: B2 VH with M34L, T35S
VL: B1 VL with G34V, N53S, H54N, A90G, A91S, S94Y
modifications: Heavy chain variable region of antibody 472M1; Light chain variable region of antibody 472M1
B7: 442M10: modified anti-ErbB3 antibody from lead antibody 442P (CDR mutagenesis) (antibody, V domains shown)
VH: B1 VH with Y59D, R100L
VL: B1 VL with G34V, H54F
modifications: Heavy chain variable region of antibody 442M10; Light chain variable region of antibody 442M10
B8: 442M4: modified anti-ErbB3 antibody from lead antibody 442P (CDR mutagenesis) (antibody, V domains shown)
VH: B1 VH with S50T, Y52D, P53L, T58I, R100L, W103G
VL: B1 VL with G34V, A51S, A90V, A91G, S97Y, Y99H
modifications: Heavy chain variable region of antibody 442M4; Light chain variable region of antibody 442M4
B9: 472S2: modified anti-ErbB3 antibody from lead antibody 472P (CDR mutagenesis) (antibody, V domains shown)
VH: B2 VH with M34L, T35A
VL: B1 VL with G34V, N53S, H54N, A90G, A91S, S94Y
modifications: Heavy chain variable region of antibody 472S2; Light chain variable region of antibody 472S2
B10: 442M3: modified anti-ErbB3 antibody from lead antibody 442P (CDR mutagenesis) (antibody, V domains shown)
VH: B1 VH
VL: B1 VL with H54W
modifications: Heavy chain variable region of antibody 442M3; Light chain variable region of antibody 442M3
B11: 472S3: modified anti-ErbB3 antibody from lead antibody 472P (CDR mutagenesis) (antibody, V domains shown)
VH: B2 VH with T35S
VL: B1 VL with G34V, N53S, H54N, A90G, A91S, S94Y
modifications: Heavy chain variable region of antibody 472S3; Light chain variable region of antibody 472S3
B12: 442M8: modified anti-ErbB3 antibody from lead antibody 442P (CDR mutagenesis) (antibody, V domains shown)
VH: B1 VH with R100L, W103G
VL: B1 VL with G34V, A51S, A90H, S97Y, G98V, Y99D
modifications: Heavy chain variable region of antibody 442M8; Light chain variable region of antibody 442M8
B13: 442M5: modified anti-ErbB3 antibody from lead antibody 442P (CDR mutagenesis) (antibody, V domains shown)
VH: B1 VH with S50T, Y52D, P53L, T58I, R100L, W103G
VL: B1 VL with G34V, A51S, A90H, S97W, Y99D
modifications: Heavy chain variable region of antibody 442M5; Light chain variable region of antibody 442M5

Biological target: T1, recombinant human ErbB3 protein (Homo sapiens, UniProt P21860)
T1 construct: purchased R&D systems
Experiment: Binding affinity of anti-ErbB3 antibody to human ErbB3 protein (Octet QK384)
Conditions: immobilized human ErbB3; for ka (association constant): binding phase about 900 seconds; for kd (dissociation constant): dissociation phase about 1200 seconds
Method: In particular, the binding affinities of the anti-ErbB3 antibodies to the recombinant human ErbB3 protein (R&D systems) and the antigen-antibody interactive dynamics were measured using an Octet® QK384 system (Pall Life Sciences). After activation of carboxyl groups in 20 mM of 1-ethyl-3-(3-dimethylaminopropyl)carbodiimide hydrochloride (EDC) and 40 mM of N-hydroxysulfosuccinimide (sulfo-NHS) solution on an AR2G sensor (ForteBio), 10 μg/mL of human ErbB3 protein solution diluted with 10 mM of sodium acetate (pH 4.0) (ForteBio) was added to immobilize human ErbB3 protein onto the AR2G sensor. The AR2G sensor to which the human ErbB3 protein was immobilized was treated with 1 M of ethanolamine (ForteBio) to inactivate the remaining unreacted carboxyl groups.

| Molecule | ka (association constant) [M⁻¹ s⁻¹] | kd (dissociation constant) [s⁻¹] |
| --- | --- | --- |
| B1 | 821000 | 5.87e-05 |
| B2 | 649000 | 3.33e-07 |
| B3 | 969000 | 1.95e-05 |
| B4 | 1.49e+06 | 8.09e-06 |
| B5 | 1.15e+06 | 1.09e-05 |
| B6 | 1.39e+06 | 1.74e-05 |
| B7 | 471000 | <1e-07 |
| B8 | 573000 | <1e-07 |
| B9 | 1.07e+06 | <1e-07 |
| B10 | 771000 | 2.62e-06 |
| B11 | 522000 | 1.43e-07 |
| B12 | 870000 | 2.23e-06 |
| B13 | 665000 | <1e-07 |
